For series [1], the system named is peptide 7 amyloid (designed). Put plainly: pelleting/HPLC. To be noted: citrate-phosphate buffer, pH 3 (or pH series), room temperature, overnight, 100 uM peptide with 25 or 50 uM oligo, Kd: 50 uM peptide with 5-200 uM oligo ….
Series [2] concerns peptide 4 amyloid (designed). Put plainly: pelleting/HPLC. Conditions: pH 3, 100 uM peptide, 50 uM RNA; citrate-phosphate buffer, pH 3 (or pH series), room temperature, overnight, 100 uM peptide with 25 or 50 uM oligo; Kd: 50 uM peptide with 5-200 uM oligo ….
A further series addresses T1, VAQAQINI-NH2 amyloid (designed).
T1 chain: VAQAQINI-NH2
Description: pelleting/HPLC; Bmax 0.147; citrate-phosphate buffer, pH 3 (or pH series), room temperature, overnight, 100 uM peptide with 25 or 50 uM oligo; Kd: 50 uM peptide with 5-200 uM oligo; supern. To be noted: single strand.

No end group written: not given here.

The record followed here is article PMC10571083, “An Analysis of Nucleotide–Amyloid Interactions Reveals Selective Binding to Codon-Sized RNA”.

For orientation: Kd means the concentration at which binding is half-saturated. GUGUGU [[GU]3] came in with a Kd in series [1] of 856 nM.
As to GUGUGUG [[GU]3G], the Kd in series [1] turned out to be 48.6 nM. Also, in series [2], the binding signal came out at 100 % bound.
Turning to GUG [DNA pGUG], in series [1] (5' phosphate, DNA backbone (printed with U)), the Kd was determined as 117000 nM.
As to GUGUG [pGUGUG], in series [1] (5' phosphate), the Kd was determined as 74.9 nM.
In series [1] (5' phosphate), GUG [pGUG] displayed a Kd of 82000 nM. Moreover, the binding signal in series [1] (pH 3, 100 uM peptide, 25 uM RNA, peptide 7 or 9 not specified, 5' phosphate) is > 40 % bound.
With GUGU [pGUGU], in series [1] (5' phosphate), the Kd worked out at 1290 nM.

B1: pGUCAp (ssRNA)
RNA: GUCA
modifications: 5' and 3' phosphate
The molecule B1 came in with a Kd with VAQAQINI-NH2 amyloid of 1950 nM.
